Laboratory results taken from the supplement of paper PMC9170038.

Test system: MS2 coat protein
Assay: apparent KD of MS2 coat protein; designed switch direction (-1 OFF switch, 1 ON switch): 1; higher = weaker reporter binding
In short: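 The apparent KD reported per design is the median over clusters of curve fits to normalised cluster fluorescence. The RNA switches were transcribed on Illumina chips by stalled E. coli RNA polymerase. SNAP-549-labelled MS2 coat protein was titrated from 0.7 or 1.5 nM, doubling up to 3 µM, in Tris-HCl pH 7.5 buffer containing KCl, MgCl2, BSA, DTT, tRNA and Tween-20, with no input, 200 uM small-molecule ligand, or an oligonucleotide input.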

[1] = input ligand: microRNA oligo, concentration not stated
[2] = Eterna round: R95, input ligand: FMN 200 uM
[3] = Eterna round: R95, input ligand: microRNA oligo, concentration not stated
[4] = Eterna round: R95, input ligand: none

| Sequence | apparent KD of MS2 coat protein (input ligand: FMN 200 uM) | apparent KD of MS2 coat protein [1] | apparent KD of MS2 coat protein (input ligand: none) | apparent KD of MS2 coat protein [2] | apparent KD of MS2 coat protein [3] | apparent KD of MS2 coat protein [4] |
| --- | --- | --- | --- | --- | --- | --- |
| AGCCGAGACUGAGGAUAUUUAAAUCUACAUGAGGAUCACCCAUGUAACAACACGUGGUAGUGAUUGAAGAAGGCGGCUCGGCGC [Omei SS(NG)2 Cv2] (Eterna round: R96, puzzle: Same State NG 2) | 177 nM | 406 nM | 404 nM | – | – | – |
| CCGGGUAAUGGAGGAUAUGGAGCCUUAUUGGCUCCAGAAGGCUAACAUGAGGAUCACCCAUGUAGUCCGGCGGUCAAUAGACCG [Eli NG1ss - 66] (Eterna round: R96, puzzle: Same State NG 1) | 10.5 nM | 13.2 nM | 19.2 nM | – | – | – |
| AGUCCAGCCUGAGCUGGACAAAAGCAUGUACAUGAGGAUCACCCAUGUCAUGUACAAGCUUUUUGCUCGACUUAAAA [Mat - hsa-mir-208a - Mod of JL - D10] (puzzle: Sensor for hsa-mir-208a) | – | – | – | 569 nM | 14.2 nM | 624 nM |
| UUGUUUUGUAAUUAACAUGAGGAUCACCCAUGUCUUGGCUCAGAGGAUAUACAUGUUUGUUUGUAGUAGAAGGCUGUUUGUUGU [JR_SSNG3_Sub095] (Eterna round: R96, puzzle: Same State NG 3) | 94.7 nM | 107 nM | 131 nM | – | – | – |
| UUAAUGAUGUAAGGAUAUACAUGAGGAUUUCUCGUAGAAGGUACAAGACAUGAGGAUCACCCAUGUGUCGCUCAAUAGAGCGUA [Mat - Same State NG 1 - JL mod - D19] (Eterna round: R96, puzzle: Same State NG 1) | 268 nM | 138 nM | 292 nM | – | – | – |
| CUGAGAUGUCAAGGAUAUCACGUCGAUUAGACGUGAGAAGGUGAUCAGUACAUGAGGAUCACCCAUGUGUUACAUGGAACUCAG [Brourd's SSNG1/1-A2 mod 9] (Eterna round: R96, puzzle: Same State NG 1) | 868 nM | 102 nM | 571 nM | – | – | – |
| AUAAGUUUGAUGCUCGUCUCUCCGUACAGACAUGAGGAUCACCCAUGUAGUCGGGCAGUAGCCCGGCCAGUAUGGCC [Raatbeor] (puzzle: Sensor for hsa-mir-208a) | – | – | – | 103 nM | 28.8 nM | 119 nM |
| AGCUAGUACCGAGGAUAUACGAACAUGAGGAUCACCCAUGUAUACAUGGUUUAAUGAGACUACAUGUAGAAGGCGGUACUAGCA [SameState NG2 #11] (Eterna round: R96, puzzle: Same State NG 2) | 1110 nM | 281 nM | 624 nM | – | – | – |
| GUUACAUGAGGAUCACCCAUGUAUGUGUGGGAGUAAGUGUCUUAGGAUAUCUAGUAAUUAAUUUAAGAGAAGGAAGAUUGUUGU [JMF's solution 54] (Eterna round: R96, puzzle: Same State NG 3) | 133 nM | 93.5 nM | 134 nM | – | – | – |
| AUAAAACAUGAGGAUCACCCAUGUCAACAAAGUCGAGGAUAUGGGCAAAUAAAAUAAGAACCAGAAGGCGAAUAAC [salish99_SS1_r3_003] (Eterna round: R96, puzzle: Same State 1) | 39.7 nM | 215 nM | 282 nM | – | – | – |
| AGCUAUGGAAAACUAUAGCAAAAGUAUGUACAUGAGGAUCACCCAUGUCAUGUACAAGCUUUUUGCUCGUCUUAAAA [ak 6 mod of one Eli's designs.] (puzzle: Sensor for hsa-mir-208a) | – | – | – | 201 nM | 18.6 nM | 189 nM |
| GUGGUCAGACAUGAGGAUCACCCAUGUGGAAUAAAUAAGGGACAGGAUAUCUAAUAUAGGAUAUAAGAGAAGGGUUGGUUGGUG (Eterna round: R96, puzzle: Same State NG 3) | 69.3 nM | 44.8 nM | 73.5 nM | – | – | – |
| UAAGAACAUGAGGAUCACCCAUGUGGAAAGAACACAGGAUAUCAUAGUAGAACGAGACUAUGAGAAGGGUGACACG [Texeistean] (puzzle: Same State 1) | – | – | – | 595 nM | 214 nM | 666 nM |
| AGUAUACAUGAGGAUCACCCAUGUCUGUAACGGACAGGAUAUGCGUUGCAUCACUGUAAUGCAGAAGGGUCCUGUA [Same State 1 - Mod of JMF's solution 1 v.2] (Eterna round: R96, puzzle: Same State 1) | 50.5 nM | 148 nM | 202 nM | – | – | – |
| AUAAAACAUGAGGAUCACCCAUGUCAACAAAGAUGAGGAUAUGUACAGACUUCGGUCUGUACAGAAGGCAUAUAAU [salish99_ss1_r3_099] (puzzle: Same State 1) | – | – | – | 15.4 nM | 15.2 nM | 13.9 nM |
| AGUGAACAUGAGGAUCACCCAUGUGAGAGAAGUGUAGGAUAUGUGAGGAGCAGAGGAGGAACAGAAGGACAUGGAG [JR_SS!_Sub073] (puzzle: Same State 1) | – | – | – | 29 nM | 36.8 nM | 48.5 nM |
| GGUGGGUUACUACCAACACAUGAGGAUCACCCAUGUUUUGGGAAGGAUAUGGUACCUAUUUGGUACCAGAAGGUCCAGUUAAUG [salish99_SSNG3_r04_702] (Eterna round: R96, puzzle: Same State NG 3) | 51.4 nM | 29.5 nM | 41.7 nM | – | – | – |
| UUGAUGAAUUAAGGAUAUCGAGUCGUCUAAUUAAACAUGAGGAUCACCCAUGUGGGUUGUGGUAUCGAGAAGGUAAAUUACUUA [JR_SSNG2_Sub098] (Eterna round: R96, puzzle: Same State NG 2) | 66.2 nM | 67.5 nM | 92.6 nM | – | – | – |
| AGUAUACAUGAGGAUCACCCAUGUCUGUAACGGACAGGAUAUGCGUUGCAUCACUGUAAUGCAGAAGGGUCCUGUA [Same State 1 - Mod of JMF's solution 1 v.2] (puzzle: Same State 1) | – | – | – | – | 179 nM | – |
| UUGUUUGGUAAAAUACAUGAGGAUCACCCAUGUUAUGGUGCAGAGGAUAUGCAUGUUUGAUUGAAGCAGAAGGCUGUAAGUUGU [JR_SSNG3_Sub036] (Eterna round: R96, puzzle: Same State NG 3) | 35.7 nM | 35.5 nM | 43.7 nM | – | – | – |
| UGGUGUAACAUGAGGAUCACCCAUGUCACAACCCGGAUAGAGUAGGAUAUGGGCUGAUCACGCAUCCAGAAGGGCUCAUACUUU [Eternabot solution 19] (Eterna round: R96, puzzle: Same State NG 3) | 19.7 nM | 14.3 nM | 16.8 nM | – | – | – |
| AGUAUUUAUGCAGGAUAUGAUUAACAUGAGGAUCACCCAUGUGGUGUUGUGAGUAAGGAGAGUGAUCAGAAGGGCAUUUUUUUU [JMF's solution 74] (Eterna round: R96, puzzle: Same State NG 2) | 512 nM | 324 nM | 380 nM | – | – | – |
| AUGAUAUACUCAGGAUAUAUGCGAGACGACGAGAUAGAAGGGAGAAGAUAAUGACGUACAUGAGGAUCACCCAUGUGAGGAUCA [Same State NG1 S4] (Eterna round: R96, puzzle: Same State NG 1) | 26.9 nM | 20.6 nM | 34 nM | – | – | – |
